Measurements from patent publication US20220372155A1 (LYVGEN BIOPHARMA, published 2022).

B1: Ly465 (bispecific antibody, human IgG1, kappa)
heavy: QVQLKESGPGLVAPSQSLSITCTVSGFSLTDYGVRWIRQPPGKGLEWLGVIWGGGSTYYNSALKSRLSISKDNSKSQVFLKMNSLQTDDTAMYYCAKEKRRGYYYAMDYWGQGTSVTVSSASTKGPSVFPLAPSSKSTSGGTAALGCLVKDYFPEPVTVSWNSGALTSGVHTFPAVLQSSGLYSLSSVVTVPSSSLGTQTYICNVNHKPSNTKVDKKVEPKSCDKTHTCPPCPAPELLGPSVFLFPPKPKDTLMISRTPEVTCVVVDVSHEDPEVKFNWYVDGVEVHNAKTKPREEQYNSTYRVVSVLTVLHQDWLNGKEYKCKVSNKALPAPIEKTISKAKGQPREPQVYTLPPSREEMTKNQVSLTCLVKGFYPSDIAVEWESNGQPENNYKTTPPVLDSDGSFFLYSKLTVDKSRWQQGNVFSCSVMHEALHNHYTQKSLSLSPG
light: ENVLTQSPAIMSASPGEKVTMTCRASSSVSSSYLHWYQQKSGASPKLWIYSTSNLASGVPARFSGSGSGTSYSLTISSVEAEDAATYYCQQYSGYPLTFGGGTKLEIKRTVAAPSVFIFPPSDEQLKSGTASVVCLLNNFYPREAKVQWKVDNALQSGNSQESVTEQDSKDSTYSLSSTLTLSKADYEKHKVYACEVTHQGLSSPVTKSFNRGECGGGGSGGGGSGGGGSGGGGSQVQLVESGGGLVQPGGSLKLSCATSGFNFNDYFMNWVRQASGKGLEWVGQIRNKNYNYATYYTESLEGRVTISRDDSKNTAYLQMNSLKTEDTAVYYCTSYYYDGFADYFDYWGQGTTVTVSSGGGGSGGGGSGGGGSGGGGSDIQMTQSPSSLSASVGDRVTITCKASQNIYIYLNWYQQKPGKAPKLLIYNTNNLQTGVPSRFSGSGSGTDFTLTISSLQPEDFATYYCLQHSSRRTFGGGTKVEIK
notes: Ly368 HC + Ly368 LC-TM740 scFv VH-VL
B2: Ly466 (bispecific antibody, human IgG1, kappa)
heavy: QVQLKESGPGLVAPSQSLSITCTVSGFSLTDYGVRWIRQPPGKGLEWLGVIWGGGSTYYNSALKSRLSISKDNSKSQVFLKMNSLQTDDTAMYYCAKEKRRGYYYAMDYWGQGTSVTVSSASTKGPSVFPLAPSSKSTSGGTAALGCLVKDYFPEPVTVSWNSGALTSGVHTFPAVLQSSGLYSLSSVVTVPSSSLGTQTYICNVNHKPSNTKVDKKVEPKSCDKTHTCPPCPAPELLGPSVFLFPPKPKDTLMISRTPEVTCVVVDVSHEDPEVKFNWYVDGVEVHNAKTKPREEQYNSTYRVVSVLTVLHQDWLNGKEYKCKVSNKALPAPIEKTISKAKGQPREPQVYTLPPSREEMTKNQVSLTCLVKGFYPSDIAVEWESNGQPENNYKTTPPVLDSDGSFFLYSKLTVDKSRWQQGNVFSCSVMHEALHNHYTQKSLSLSPGGGGGSGGGGSGGGGSGGGGSDIQMTQSPSSLSASVGDRVTITCLASEDISNDLAWYQQKPGKAPKLLIYFVDRLLDGVPSRFSGSGSGTDFTLTISSLQPEDFATYYCQQSYKYPPTFGQGTKLEIKGGGGSGGGGSGGGGSGGGGSEVQLVESGGGLVQPGGSLRLSCAASGFTFTNYGLHWVRQAPGKGLEWVSSISPSGGVTYYRDSVKGRFTISRDNSKNTLYLQMNSLRAEDTAVYYCAKPFLGWGGANWIAHWGQGTLVTVSS
light: ENVLTQSPAIMSASPGEKVTMTCRASSSVSSSYLHWYQQKSGASPKLWIYSTSNLASGVPARFSGSGSGTSYSLTISSVEAEDAATYYCQQYSGYPLTFGGGTKLEIKRTVAAPSVFIFPPSDEQLKSGTASVVCLLNNFYPREAKVQWKVDNALQSGNSQESVTEQDSKDSTYSLSSTLTLSKADYEKHKVYACEVTHQGLSSPVTKSFNRGEC
notes: Ly368 HC-TM559 scFv VL-VH + Ly368 LC
B3: Ly467 (bispecific antibody, human IgG1, kappa)
heavy: QVQLKESGPGLVAPSQSLSITCTVSGFSLTDYGVRWIRQPPGKGLEWLGVIWGGGSTYYNSALKSRLSISKDNSKSQVFLKMNSLQTDDTAMYYCAKEKRRGYYYAMDYWGQGTSVTVSSASTKGPSVFPLAPSSKSTSGGTAALGCLVKDYFPEPVTVSWNSGALTSGVHTFPAVLQSSGLYSLSSVVTVPSSSLGTQTYICNVNHKPSNTKVDKKVEPKSCDKTHTCPPCPAPELLGPSVFLFPPKPKDTLMISRTPEVTCVVVDVSHEDPEVKFNWYVDGVEVHNAKTKPREEQYNSTYRVVSVLTVLHQDWLNGKEYKCKVSNKALPAPIEKTISKAKGQPREPQVYTLPPSREEMTKNQVSLTCLVKGFYPSDIAVEWESNGQPENNYKTTPPVLDSDGSFFLYSKLTVDKSRWQQGNVFSCSVMHEALHNHYTQKSLSLSPGGGGGSGGGGSGGGGSGGGGSEVQLVESGGGLVQPGGSLRLSCAASGFTFTNYGLHWVRQAPGKGLEWVSSISPSGGVTYYRDSVKGRFTISRDNSKNTLYLQMNSLRAEDTAVYYCAKPFLGWGGANWIAHWGQGTLVTVSSGGGGSGGGGSGGGGSGGGGSDIQMTQSPSSLSASVGDRVTITCLASEDISNDLAWYQQKPGKAPKLLIYFVDRLLDGVPSRFSGSGSGTDFTLTISSLQPEDFATYYCQQSYKYPPTFGQGTKLEIK
light: B2 light
notes: Ly368 HC-TM559 scFv VH-VL + Ly368 LC
B4: Ly468 (bispecific antibody, human IgG1, kappa)
heavy: B1 heavy
light: ENVLTQSPAIMSASPGEKVTMTCRASSSVSSSYLHWYQQKSGASPKLWIYSTSNLASGVPARFSGSGSGTSYSLTISSVEAEDAATYYCQQYSGYPLTFGGGTKLEIKRTVAAPSVFIFPPSDEQLKSGTASVVCLLNNFYPREAKVQWKVDNALQSGNSQESVTEQDSKDSTYSLSSTLTLSKADYEKHKVYACEVTHQGLSSPVTKSFNRGECGGGGSGGGGSGGGGSGGGGSDIQMTQSPSSLSASVGDRVTITCLASEDISNDLAWYQQKPGKAPKLLIYFVDRLLDGVPSRFSGSGSGTDFTLTISSLQPEDFATYYCQQSYKYPPTFGQGTKLEIKGGGGSGGGGSGGGGSGGGGSEVQLVESGGGLVQPGGSLRLSCAASGFTFTNYGLHWVRQAPGKGLEWVSSISPSGGVTYYRDSVKGRFTISRDNSKNTLYLQMNSLRAEDTAVYYCAKPFLGWGGANWIAHWGQGTLVTVSS
notes: Ly368 HC + Ly368 LC-TM559 scFv VL-VH
B5: TM377 (antibody, human IgG4 S228P, kappa, V domains shown)
VH: EVQILETGGGLVKPGGSLRLSCATSGFNFNDSFMNWVRQAPGKGLEWVAQIRNKNYNYATYYTESLEGRVTISRDDSKSRVYLQVSSLRAEDSAVYYCTSYYYDGFADYFDYWGQGVMVTVSS
VL: DIKMTQSPSFLSASVGDSVTFTCKASQNIYIYLNWYQQKFGEAPKLLIYNTNNLQTGIPSRFSGSESGTVFTLTISSLQPEDVATYFCLQHSSRRTFGGGTKLELKR
notes: chimeric: LYV377 VH/human IgG4, LYV377 VL/kappa; also called chimeric parent TM377
B6: Ly469 (bispecific antibody, human IgG1, kappa)
heavy: B1 heavy
light: ENVLTQSPAIMSASPGEKVTMTCRASSSVSSSYLHWYQQKSGASPKLWIYSTSNLASGVPARFSGSGSGTSYSLTISSVEAEDAATYYCQQYSGYPLTFGGGTKLEIKRTVAAPSVFIFPPSDEQLKSGTASVVCLLNNFYPREAKVQWKVDNALQSGNSQESVTEQDSKDSTYSLSSTLTLSKADYEKHKVYACEVTHQGLSSPVTKSFNRGECGGGGSGGGGSGGGGSGGGGSEVQLVESGGGLVQPGGSLRLSCAASGFTFTNYGLHWVRQAPGKGLEWVSSISPSGGVTYYRDSVKGRFTISRDNSKNTLYLQMNSLRAEDTAVYYCAKPFLGWGGANWIAHWGQGTLVTVSSGGGGSGGGGSGGGGSGGGGSDIQMTQSPSSLSASVGDRVTITCLASEDISNDLAWYQQKPGKAPKLLIYFVDRLLDGVPSRFSGSGSGTDFTLTISSLQPEDFATYYCQQSYKYPPTFGQGTKLEIK
notes: Ly368 HC + Ly368 LC-TM559 scFv VH-VL
B7: Ly470 (bispecific antibody, human IgG1, kappa)
heavy: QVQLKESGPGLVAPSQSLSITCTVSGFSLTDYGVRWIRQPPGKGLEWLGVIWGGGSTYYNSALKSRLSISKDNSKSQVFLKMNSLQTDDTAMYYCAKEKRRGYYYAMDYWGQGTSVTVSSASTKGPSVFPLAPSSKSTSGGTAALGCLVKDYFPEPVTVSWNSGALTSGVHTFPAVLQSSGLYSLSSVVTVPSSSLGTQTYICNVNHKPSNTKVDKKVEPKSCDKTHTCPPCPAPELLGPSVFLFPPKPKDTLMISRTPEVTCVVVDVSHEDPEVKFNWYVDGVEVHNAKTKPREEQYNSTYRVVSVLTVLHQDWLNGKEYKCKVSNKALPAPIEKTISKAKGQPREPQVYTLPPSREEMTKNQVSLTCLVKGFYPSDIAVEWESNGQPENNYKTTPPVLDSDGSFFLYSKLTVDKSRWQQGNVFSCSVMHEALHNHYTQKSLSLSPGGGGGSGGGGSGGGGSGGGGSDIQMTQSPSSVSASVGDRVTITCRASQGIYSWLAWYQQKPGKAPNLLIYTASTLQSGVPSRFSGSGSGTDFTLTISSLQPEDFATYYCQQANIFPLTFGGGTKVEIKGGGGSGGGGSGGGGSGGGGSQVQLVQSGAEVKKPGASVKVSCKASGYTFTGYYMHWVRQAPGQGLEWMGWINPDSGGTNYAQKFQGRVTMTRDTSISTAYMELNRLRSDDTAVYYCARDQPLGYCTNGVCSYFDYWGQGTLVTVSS
light: B2 light
notes: Ly368 HC-Ly253 scFv VL-VH + Ly368 LC
B8: Ly471 (bispecific antibody, human IgG1, kappa)
heavy: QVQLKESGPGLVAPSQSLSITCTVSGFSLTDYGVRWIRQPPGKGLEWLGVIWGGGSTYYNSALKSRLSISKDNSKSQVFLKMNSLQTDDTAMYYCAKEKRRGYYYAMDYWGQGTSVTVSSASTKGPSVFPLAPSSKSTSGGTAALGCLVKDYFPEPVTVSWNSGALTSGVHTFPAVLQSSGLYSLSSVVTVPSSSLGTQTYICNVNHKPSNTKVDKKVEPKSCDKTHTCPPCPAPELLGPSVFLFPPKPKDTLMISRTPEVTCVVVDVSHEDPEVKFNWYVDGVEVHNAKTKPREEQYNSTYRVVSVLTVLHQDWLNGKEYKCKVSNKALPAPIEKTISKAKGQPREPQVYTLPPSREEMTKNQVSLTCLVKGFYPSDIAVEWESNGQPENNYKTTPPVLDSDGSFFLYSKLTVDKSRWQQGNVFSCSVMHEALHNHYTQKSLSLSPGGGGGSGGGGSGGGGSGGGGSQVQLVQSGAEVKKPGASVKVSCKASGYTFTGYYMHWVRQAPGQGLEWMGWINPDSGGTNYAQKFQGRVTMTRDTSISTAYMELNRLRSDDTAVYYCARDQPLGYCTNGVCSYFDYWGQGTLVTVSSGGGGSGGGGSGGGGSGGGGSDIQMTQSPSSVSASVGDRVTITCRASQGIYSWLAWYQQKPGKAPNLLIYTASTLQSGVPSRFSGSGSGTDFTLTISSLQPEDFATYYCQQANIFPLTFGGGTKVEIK
light: B2 light
notes: Ly368 HC-Ly253 scFv VH-VL + Ly368 LC
B9: Ly472 (bispecific antibody, human IgG1, kappa)
heavy: B1 heavy
light: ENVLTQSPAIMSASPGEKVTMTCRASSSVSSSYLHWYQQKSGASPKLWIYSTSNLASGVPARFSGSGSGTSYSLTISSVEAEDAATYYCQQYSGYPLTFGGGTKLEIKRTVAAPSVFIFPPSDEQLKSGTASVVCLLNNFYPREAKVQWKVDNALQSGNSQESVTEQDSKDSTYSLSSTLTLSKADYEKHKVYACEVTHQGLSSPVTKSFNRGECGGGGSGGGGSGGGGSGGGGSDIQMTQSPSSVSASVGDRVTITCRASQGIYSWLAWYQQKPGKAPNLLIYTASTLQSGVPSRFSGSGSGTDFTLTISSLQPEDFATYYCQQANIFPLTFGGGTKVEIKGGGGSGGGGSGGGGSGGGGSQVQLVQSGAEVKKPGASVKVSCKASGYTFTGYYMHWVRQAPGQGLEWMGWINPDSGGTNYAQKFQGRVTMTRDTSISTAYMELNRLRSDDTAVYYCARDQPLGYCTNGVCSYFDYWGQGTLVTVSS
notes: Ly368 HC + Ly368 LC-Ly253 scFv VL-VH
B10: Ly473 (bispecific antibody, human IgG1, kappa)
heavy: B1 heavy
light: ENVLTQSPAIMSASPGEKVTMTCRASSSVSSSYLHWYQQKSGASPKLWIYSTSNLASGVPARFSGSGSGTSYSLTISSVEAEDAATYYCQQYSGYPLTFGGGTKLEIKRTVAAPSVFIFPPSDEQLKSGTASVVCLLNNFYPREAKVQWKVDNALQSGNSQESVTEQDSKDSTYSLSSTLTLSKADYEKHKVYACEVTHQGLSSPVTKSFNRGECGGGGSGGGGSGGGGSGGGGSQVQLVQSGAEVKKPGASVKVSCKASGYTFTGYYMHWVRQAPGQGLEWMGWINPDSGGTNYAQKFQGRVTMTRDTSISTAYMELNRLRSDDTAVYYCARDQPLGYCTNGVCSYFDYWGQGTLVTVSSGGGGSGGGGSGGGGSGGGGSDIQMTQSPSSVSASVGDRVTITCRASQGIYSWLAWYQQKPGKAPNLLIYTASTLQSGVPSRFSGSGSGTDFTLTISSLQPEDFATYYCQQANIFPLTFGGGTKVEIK
notes: Ly368 HC + Ly368 LC-Ly253 scFv VH-VL

The binders below were run against T1, human CD40 expressed on CHO cells (human, UniProt P25942 21-277) (assay: FACS, CHO cells).
T1 construct: whole, on cells; also used for the reporter cells over-expressing human CD40; also called cellular CD40; CHO-CD40 cells
T1 sequence (P25942 21-277): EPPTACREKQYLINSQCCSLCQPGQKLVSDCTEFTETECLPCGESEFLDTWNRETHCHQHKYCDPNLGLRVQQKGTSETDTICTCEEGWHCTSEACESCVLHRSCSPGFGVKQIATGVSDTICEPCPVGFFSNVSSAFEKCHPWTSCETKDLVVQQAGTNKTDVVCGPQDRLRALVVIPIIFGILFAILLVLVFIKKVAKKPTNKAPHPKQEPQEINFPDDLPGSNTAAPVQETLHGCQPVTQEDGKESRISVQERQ
B1: binds.
B2: binds.
B3: binds.
B4: binds.
B5: binds.
B6: binds.
B7: binds.
B8: binds.
B9: binds.
B10: binds.
